# From patent US20220041658A1 (PROTAGONIST THERAPEUTICS, published 2022)
# Starred links: 1 amine or outer side, 2 acyl side, 3 side chain; linkers in the order of their positions; H or OH if unused. Positions of bridges follow the written chain, without caps; N, C: chain ends. Non-standard residues stand in square brackets, D forms with d. Trp(6-Et) = 6-ethyl-tryptophan, CCc1ccc2c(C[C@H](N[*:1])C(=O)[*:2])c[nH]c2c1; Trp(7-OMe) = COc1cccc2c(C[C@H](N)C(=O)O)c[nH]c12; Trp(7-Me) = Cc1cccc2c(C[C@H](N)C(=O)O)c[nH]c12; 2Nal = N[C@@H](Cc1ccc2ccccc2c1)C(=O)O; AEF = NCCOc1ccc(C[C@H](N)C(=O)O)cc1; Cit = NC(=O)NCCC[C@H](N)C(=O)O; Pen = CC(C)(S)[C@H](N)C(=O)O; hLeu = CC(C)CC[C@H](N)C(=O)O; αMeK = C[C@](N)(CCCCN)C(=O)O; Abu = CC[C@H](N)C(=O)O; Aib = CC(C)(N)C(=O)O; βAla = NCCC(=O)O
# T1: interleukin-23 receptor (IL-23R) (human, UniProt Q5VWK5 24-629)
# T1 sequence (looked up): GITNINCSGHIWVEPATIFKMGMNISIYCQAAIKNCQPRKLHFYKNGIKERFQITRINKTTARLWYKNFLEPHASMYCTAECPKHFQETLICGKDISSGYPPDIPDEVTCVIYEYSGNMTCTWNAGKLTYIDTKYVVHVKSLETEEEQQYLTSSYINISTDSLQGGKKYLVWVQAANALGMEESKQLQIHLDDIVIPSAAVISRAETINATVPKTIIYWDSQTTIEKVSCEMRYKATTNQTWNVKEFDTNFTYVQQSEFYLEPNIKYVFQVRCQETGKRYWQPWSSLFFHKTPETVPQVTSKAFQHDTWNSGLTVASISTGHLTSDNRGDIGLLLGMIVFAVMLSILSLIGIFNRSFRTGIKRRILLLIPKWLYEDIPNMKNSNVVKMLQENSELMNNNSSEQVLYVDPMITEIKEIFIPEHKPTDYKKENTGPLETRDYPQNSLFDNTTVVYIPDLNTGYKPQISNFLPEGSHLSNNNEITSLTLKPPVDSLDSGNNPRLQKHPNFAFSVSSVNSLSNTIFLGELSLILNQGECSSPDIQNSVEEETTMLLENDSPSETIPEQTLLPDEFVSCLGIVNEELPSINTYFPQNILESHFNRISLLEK
# B1: Peptide of SEQ ID NO: 297 (peptide)
# peptide: XNTXQXXXXKNK
# modifications: Ac-[Pen]-N-T-[W(7-OMe)]-Q-[Pen]-Phe[4-(2-aminoethoxy)]-[2-Nal]-[a-MeLys]-[Lys(Ac)]-N-[(D)Lys]-NH2; Pen-Pen disulfide
# B2: Peptide of SEQ ID NO: 299 (peptide)
# peptide: XNTXKXXXXKNK
# modifications: Ac-[Pen]-N-T-[W(7-OMe)]-[Lys(Ac)]-[Pen]-Phe[4-(2-aminoethoxy)]-[2-Nal]-[a-MeLys]-[Lys(Ac)]-N-[(D)Lys]-NH2; Pen-Pen disulfide
# B3: Peptide of SEQ ID NO: 213 (peptide)
# peptide: XNTXQXXXXKFX
# modifications: Ac-[Pen]-NT-[W(7-Me)]-Q-[Pen]-Phe[4-(2-aminoethoxy)]-[2-Nal]-[a-MeLeu]-[Lys(Ac)]-[(D)Phe]-[bA]-NH2; Pen-Pen disulfide
# B4: Peptide of SEQ ID NO: 210 (peptide)
# peptide: XNTXQXXXXKLX
# modifications: Ac-[Pen]-NT-[W(7-Me)]-Q-[Pen]-Phe[4-(2-aminoethoxy)]-[2-Nal]-[a-MeLeu]-[Lys(Ac)]-[(D)Leu]-[bA]-NH2; Pen-Pen disulfide
# B5: Peptide of SEQ ID NO: 340 (peptide)
# peptide: Ac-[Pen]NT[Trp(7-Me)][Cit][Pen][AEF][2Nal][αMeK]K(Ac)N[Aib][βAla]-NH2
# modifications: disulfide 1-6 (inferred)
# B6: Peptide of SEQ ID NO: 300 (peptide)
# peptide: Ac-[Pen]NT[Trp(7-OMe)][Cit][Pen][AEF][2Nal][αMeK]K(Ac)N[dK]-NH2
# modifications: disulfide 1-6 (inferred)
# B7: Peptide of SEQ ID NO: 352 (peptide)
# peptide: XNTXKXXXXKSK
# modifications: Ac-[Pen]-N-T-[W(7-Me)]-[Lys(Ac)]-[Pen]-Phe[4-(2-aminoethoxy)]-[2-Nal]-[a-MeLys]-[Lys(Ac)]-S-[(D)Lys]-NH2; Pen-Pen disulfide
# B8: Peptide of SEQ ID NO: 324 (peptide)
# peptide: Ac-[dR][Abu]QT[Trp(7-Me)]K(Ac)C[AEF][2Nal][αMeK]K(Ac)N[dK]-NH2
# modifications: thioether 2-7 (inferred)
# B9: Peptide of SEQ ID NO: 320 (peptide)
# peptide: XNTXXXXXXKNL
# modifications: Ac-[Pen]-N-T-[W(7-Me)]-[Lys(Gly)]-[Pen]-Phe[4-(2-aminoethoxy)]-[2-Nal]-[a-MeLys]-[Lys(Ac)]-N-[(D)Leu]-NH2; Pen-Pen disulfide
# B10: Peptide of SEQ ID NO: 325 (peptide)
# peptide: Ac-[dR][Abu]QT[Trp(7-Me)]K(Ac)C[AEF][2Nal][αMeK]K(Ac)N[dL]-NH2
# modifications: thioether 2-7 (inferred)
# B11: Peptide of SEQ ID NO: 349 (peptide)
# peptide: Ac-[Pen]NT[Trp(6-Et)]K(Ac)[Pen][AEF][2Nal][αMeK]K(Ac)N[dK]-NH2
# modifications: disulfide 1-6 (inferred)
# B12: Peptide of SEQ ID NO: 315 (peptide)
# peptide: XNTXXXXXXKNL
# modifications: Ac-[Pen]-N-T-[W(7-Me)]-[Lys(IVA)]-[Pen]-Phe[4-(2-aminoethoxy)]-[2-Nal]-[a-MeLys]-[Lys(Ac)]-N-[(D)Leu]-NH2; Pen-Pen disulfide
# B13: Peptide of SEQ ID NO: 296 (peptide)
# peptide: XNTXQXXXXKNK
# modifications: Ac-[Pen]-N-T-[W(5-CN)]-Q-[Pen]-Phe[4-(2-aminoethoxy)]-[2-Nal]-[a-MeLys]-[Lys(Ac)]-N-[(D)Lys]-NH2; Pen-Pen disulfide
# B14: Peptide of SEQ ID NO: 316 (peptide)
# peptide: XNTXXXXXXKNL
# modifications: not fully specified; Ac-[Pen]-N-T-[W(7-Me)]-[Lys(cyclohexyl)]-[Pen]-Phe[4-(2-aminoethoxy)]-[2-Nal]-[a-MeLys]-[Lys(Ac)]-N-[(D)Leu]-NH2; Pen-Pen disulfide
# B15: Peptide of SEQ ID NO: 293 (peptide)
# peptide: Ac-[Pen]NT[Trp(7-Me)]K(Ac)[Pen][His_Bzl][2Nal][αMeK]K(Ac)N[dL]-NH2
# modifications: disulfide 1-6 (inferred)
# B16: Peptide of SEQ ID NO: 317 (peptide)
# peptide: XNTXXXXXXKNL
# modifications: Ac-[Pen]-N-T-[W(7-Me)]-[Lys(octanoic)]-[Pen]-Phe[4-(2-aminoethoxy)]-[2-Nal]-[a-MeLys]-[Lys(Ac)]-N-[(D)Leu]-NH2; Pen-Pen disulfide
# B17: Peptide of SEQ ID NO: 334 (peptide)
# peptide: Ac-[Pen]ST[Trp(7-Me)]K(Ac)[Pen][AEF][2Nal][αMeK]K(Ac)N[dL]-NH2
# modifications: disulfide 1-6 (inferred)
# B18: Peptide of SEQ ID NO: 337 (peptide)
# peptide: Ac-[Pen][hLeu]T[Trp(7-Me)]K(Ac)[Pen][AEF][2Nal][αMeK]K(Ac)N[dL]-NH2
# modifications: disulfide 1-6 (inferred)
# B19: Peptide of SEQ ID NO: 212 (peptide)
# peptide: XNTXQXXXXKPX
# modifications: Ac-[Pen]-NT-[W(7-Me)]-Q-[Pen]-Phe[4-(2-aminoethoxy)]-[2-Nal]-[a-MeLeu]-[Lys(Ac)]-[(D)Pro]-[bA]-NH2; Pen-Pen disulfide
# B20: Peptide of SEQ ID NO: 201 (peptide)
# peptide: XNTXQXXXXKNX
# modifications: Ac-[Pen]-NT-[W(7-Me)]-Q-[Pen]-Phe[4-(2-aminoethoxy)]-[2-Nal]-[a-MeLeu]-[Lys(Ac)]-N-[bA]-NH2; Pen-Pen disulfide
# Biological target: T1, interleukin-23 receptor (IL-23R)
# Test: cell-based or functional assay
row,pStat3 HTRF IC50,Binder
1,1.04 nM,B1
2,2.86 nM,B2
3,35.5 nM,B3
4,66.1 nM,B4
5,0.322 nM,B5
6,> 1000 nM,B6
7,0.927 nM,B7
8,27 nM,B8
9,0.632 nM,B9
10,4.45 nM,B10
11,12.7 nM,B11
12,1.41 nM,B12
13,6.29 nM,B13
14,5.6 nM,B14
15,224 nM,B15
16,13 nM,B16
17,0.55 nM,B17
18,0.779 nM,B18
19,36.5 nM,B19
20,1.05 nM,B20

# Biological target: T1, interleukin-23 receptor (IL-23R)
# Test: cell-based or functional assay
# Remark: another data set of the same source
row,NK Cell Assay IC50,Binder
1,60 nM,B3
2,> 500 nM,B4
3,2.1 nM,B5
4,3.5 nM,B7
5,9.35 nM,B8
6,3.35 nM,B9
7,12.7 nM,B10
8,45.5 nM,B11
9,4.52 nM,B17
10,11.1 nM,B18
11,157 nM,B19
12,3.06 nM,B20
